In PMC10372118:
pKd: −log10 of the molar value.

Tests used:
Assay in all cases: BLI
[1] = target: truncated human ACE2 (residues 19-613 with a C-terminal AviTag and 6xHis-tag), biotinylated (human) (UniProt Q9BYF1)
[2] = target: human ACE2 polymorphism K26R (rs4646116) (human) (UniProt Q9BYF1)
[3] = target: human ACE2 polymorphism S19P (rs73635825) (human) (UniProt Q9BYF1)
[4] = target: human ACE2 polymorphism E35K (rs1348114695) (human) (UniProt Q9BYF1)

SARS-CoV-2 Omicron BA.2 RBD (from UniProt P0DTC2) (domain or fragment)
t1/2 [1]: 2.7 min | pKd [2]: 8.29 | pKd [3]: 8.30

SARS-CoV-2 RBD of Beta (B.1.351) (from UniProt P0DTC2) (domain or fragment)
t1/2 [1]: 165

SARS-CoV-2 RBD of Delta (B.1.617.2) (from UniProt P0DTC2) (domain or fragment)
t1/2 [1]: 2.4 min | pKd [4]: 7.36

SARS-CoV-2 ancestral receptor-binding domain (RBD), recombinant (from UniProt P0DTC2) (domain or fragment)
pKd [3]: 7.84
